Assay results taken from the DeepSol protein solubility set.

Assay: soluble on expression in E. coli; label from the status in PepcDB or PDB records

Sequence | soluble on expression in E. coli
MSLVKTYAFGFPKLGEKREFKRLLENYWKGKISQEELIKGMEELNLWRANLYRENVEIIPSNELSYYDFMLDTTVMVGAIPSRFGEYRGLDTYFEMARGKNALELTKWFNTNYHYLVPELEGENFKLLINRPLEDYKFFKEKGINTVPHVIGLFTFLKLSKAPKRVEEEGLPVIILEKLDTKERLEKFTKALLPVYKELLESLKNEGVNRVHFEEPALVTDLEDYDWEILNEIYSELSKVGVDLGILTYYDSVSDYDKFVNLPVKALHFDLVSNEENLKNIKEKGFPEDKELIAGIINGRQPWRANLREKVKLLEELLKVSANLVVSNSCPLYHLPVTVEPEDELPEGLKERLSFAKEKLREIRLIKEALEGKEEALREVESSEKVMTAVFAQNPEVRRRLASLSEKDFQRELPYKERDKIQRDILKLPLFPTTTIGSFPQTEDVRKMRTAYRTGKISEEEYKNFIKQKIKYAIEVQEDIGLDVLVHGEFERSDMVEYFAIKLDGIATTKHGWVLSYGSRVYRPPIIYGDVSRPAPMTLEEITYAQSLTNKPVKGMLTGPVTILNWSYYREDVPKREIAYQIALALLDEVKDLENAGIKVIQIDEPAFREGAPLKKRDWPEYFDWAVKAFRLASRAKPETQIHTHMCYSEFNEIIEYIYQMDFDVISIEASRSKGEIIEVFEKFKGWDRQIGIGVYDIHSPAIPTKEEMKAIMLRAMKVLPKELLWVNPDCGLKTRRWEEVIPALRNMVDMAKELREEVGVKVEGHHHHHH | soluble
NNDITAENNNIYKAAKDVTTSLSKVLKNIN | soluble
MSLFMPPVFPAHWHVSQPVLIADTFSSLVWKVSLPDGTPAIVKGLKPIEDIADELRGADYLVWRNGRGAVRLLGRENNLMLLEYAGERMLSHIVAEHGDYQATEIAAELMAKLYAASEEPLPSALLPIRDRFAALFQRARDDQNAGCQTDYVHAAIIADQMMSNASELRGLHGDLHHENIMFSSRGWLVIDPVGLVGEVGFGAANMFYDPADRDDLCLDPRRIAQMADAFSRALDVDPRRLLDQAYAYGCLSAAWNADGEEEQRDLAIAAAIKQVRQTSYEGHHHHHH | soluble
MVRVDQNLFNEVMYLLDELSQDITVPKNVRKVAQDSKAKLSQENESLDLRCATVLSMLDEMANDPNVPAHGRTDLYTIISKLEALSKS | not soluble
MTFSLFGDKFTRHSGITLLMEDLNDGLRTPGAIMLGGGNPAQIPEMQDYFQTLLTDMLESGKATDALCNYDGPQGKTELLTLLAGMLREKLGWDIEAQNIALTNGSQSAFFYLFNLFAGRRADGRVKKVLFPLAPEYIGYADAGLEEDLFVSARPNIELLPEGQFKYHVDFEHLHIGEETGMICVSRPTNPTGNVITDEELLKLDALANQHGIPLVIDNAYGVPFPGIIFSEARPLWNPNIVLCMSLSKLGLPGSRCGIIIANEKIITAITNMNGIISLAPGGIGPAMMCEMIKRNDLLRLSETVIKPFYYQRVQETIAIIRRYLPEDRCLIHKPEGAIFLWLWFKDLPITTEQLYQRLKARGVLMVPGHNFFPGLDKPWPHTHQCMRMNYVPEPEKIEAGVKILAEEIERAWAESH | soluble
MGSDKIHHHHHHMVRIALDPTPFHHDYDLLDFPDVTARLGYEYMQLTPHVDFGPFFRHPKADDDLVAALKKRAKDAGVTIPALLPVQRISWPEETQRVAAVRNIKRIIQLAVDLEVDTLNTEFSGRPERSEDSEDAFYRSMEELLPILEKEGIKFNIDPHPDDFVENGIEAWRVIRGLNSKQVGFVYVAPHSFHMGDQAEAILPAVGDRLGAVYLSDTFDHHKSHGLRYITNPPGNAVRVHQHLKIGDGDVNFEEIFSLLRSTGYLDREDALLVSNVFAEDEAADEVSRYQLEKIRSLIENA | not soluble
GLVNAHTHLEMTPLIGAFSELELTEMLGSGTALFNRLGNGEFEYLVEAGVELAALNFLLGGVTTVNSMDARPAAGAEAFGEAGLRGFFGPAISDLFWDQPVDQQFSRAREFVETYHDTYDGRIRATICPHDDWSCTRQLWERTASLAAEYPDLLVHTHLLELEESNTMARANGGEDSVGLLDDVGLLDDRLVAAHFRLGDEEDIQRTAEADAAVAHCPSVFCYWNPDGETQWTPVPELRAAGVDVGVGIDDHYWHDSYSMFGEARQARLAANLKRSAGQFDSMELIRMLTIEGARALGMGDE | not soluble
MGSDKIHHHHHHMKKVAIVILNWNGRKLMEEFLPSVVSNSPEWAEVIVADNGSTDDSIEMLKAKFPTVGIISFNQNYGFAEGYNQALKRLDHEYCVLLNSDVEVTPNWLDAPIATLDSDPSIACVQPKIRAQRNKEYFEYAGAAGGYIDKYGYPFCRGRILHIVEKDEGQYDTPAYILWATGACLFVRTATYKEVGGLDAGFFAHQEEVDMCWRLRSRGYRLVCVPQSIVYHVGGATLNAESPRKTFLNFRNSLLMLYKNSREADLKHVMRIRFWLDYIAAAKFLMEGHIQNAKAVYEARKAYHQLKPEYAPKRKENLEKSTLSTIPELMRDSLILAFYLKGKRTFKAIKDRR | not soluble
MGSDKIHHHHHHMNYKITTLAENSVYGKGLQGEHGLSLLVEAGEHKVLFDTGASDLFLRNARLLGLDLSDVEYVVLSHGHRDHTGGLYAFLKMNSVAKVVCKREVFRKKFKNERENGMLHPEALDKSRFWLVDETTEIVPGVFAFPDVKVVDRNDTHFEHFFTEIEGEMRPDTFEDELALVLKGEKSLSVLSACSHRGITNIIRAVQNAFPGLGLKLVMGGFHIHNAEEEKFNVISAFLGMKLPKRLGVCHCTGIDKYALFRQQFNDRVFYNYTGWVETI | not soluble
MTVLLSKRAINILLMLLDLEGSITTQELAESFTVSVRTIKYDLEDIRAWFEQHDETLYSKRNKGIWLDLPDSKRLLLKNEIIDVDRFETYPDQKRRVNVLIFQLLSVKGYLTAQQLADELLVSRNTIVSDLEQVERLLQAYDLTLIRQARQGFTISGEESNVRLLMEFITQKELTEYDIYQIMNYVTKTKGAEKIPKIKFGSGTLFQGCYRSALKKMRNLINPLDQNQFDYAEILSITLRVAIAAARMQMAHTIGTYRVLSQKTRFEQRNEVPLLLLQEVFERYDLPLLADEYFYIYSDLFGTHQRQDMVQLTKQVIESVSKELNYPFVNDRQLFTNLFAHLSLRFTKKHLFINEYNPFSEEIKGKHPALFLAIQSACKQLIQRSVLLVNDSFCAYIALHFLAAQERQQQEAKVVRIVYVCSTGLGVTSLIEQKILEEVPNVELAGFASVLNATEVIQAEKPDLVLSIFPIEEMTYPFIKVSPLLTDTDLSLIREEVDKILLGKRQGKGTARSTKSDVIEKNERIQSQDLLVKAYIIYEELKRMFQTKLLSEYQEAFLLHVLLMTHRITFNKQYEEIPCNREVSHERQEEIRQIECLFAKNELPVNHAEISALLNYLEQPKEEEDGTSNGSTGDHSTKC | not soluble
AHHHHHHGSKILYPTDFSEVSQKALTECVPSIILGIGEGSELILLHVVDITASEIGALELAEVDKEELNNLASQLREKGIKVKPIVRIGIPSLEISEVAKEENVDLIIIPSKGENILRQMLLGSTASNLARITHKPVLLLRYEVENGEIKSLQDCSRIFEKPLVALDLSKCSEKIIETIKDLPGVREAVLFHVVDYGKVEELENNIKNAKEKLSKYGKLLPWKTKIEVQAGIASKGIIGAAIDNNVTLVVIGKKGRSVLKDLLLGSTAERVIRDCKLPTLLIPCE | not soluble
MSLTTMAEHFLTLLVVPAIKKDYGSQEDFTQVWNTTMKGLKCCGFTNYTDFEDSPYFKENSAFPPFCCNDNVTNTANETCTKQKAHDQKVEGCFNQLLYDIRTNAVTVGEGHHHHHH | not soluble
